{
  "source": "paper PMC7553146",
  "origin": "cited, not measured here",
  "key": {"His41": {"target": "His41 (UniProt position 3281, VYCPRHVICTA)"}, "Cys145": {"target": "Cys145 (UniProt position 3385, FLNGSCGSVGF)"}},
  "data": [
    {"substance": "3C-like main protease (3CL Mpro, nsp5) (Severe acute respiratory syndrome coronavirus (SARS-CoV))", "values": [
      {"measurement": "pKa", "setting": "His41", "result": "6.3 ± 0.1"},
      {"measurement": "pKa", "setting": "Cys145", "result": "8.0 ± 0.3"}
    ]}
  ]
}
